Results taken from publication PMC11659602, “Discovering covalent cyclic peptide inhibitors of peptidyl arginine deiminase 4 (PADI4) using mRNA-display with a genetically encoded electrophilic warhead” (Communications Chemistry, 2024).
Where “and” joins values, the source holds several entries; their conditions need not be identical. Equal values may be shown once.

System: PADIs 1-4
Assay: COLDER citrullination activity of purified PADIs 1-4 and PADI4 C645A (no inhibitor)
Assay type: biochemical, human
Conditions: purified PADI enzyme, no inhibitor (Figure S10)
Experimental: PADI4 citrullination activity was analysed using the COLDER assay in 96-well plates. Peptide dilutions were prepared from a 500 µM stock, to give a 10 times concentrated dilution series (500 µM, 300 µM, 100 µM, 30 µM, 10 µM, 3 µM, 1 µM, 0.3 µM, 0.1 µM and 0.03 µM) in COLDER buffer (50 mM HEPES, 150 mM NaCl and 2 mM DTT, pH 7.5) containing 1% DMSO. In triplicate, each was diluted 10-fold further when mixed with 50 nM His-PADI4, 0.6 mg/mL BSA and 10 mM CaCl2, in COLDER buffer. With or without one hour of incubation, 10 mM N^α-Benzoyl-L-arginine ethyl ester hydrochloride (BAEE, Merck) was added to initiate the reaction (50 µL final volume). After 30 min at rt, EDTA (50 mM final concentration) was used to quench the reaction and 200 µL of COLDER solution containing 20 mM Diacetyl monoxime/2,3-butanedione monoxime (Merck), 0.5 mM Thiosemicarbazide (Acros Organics), 2.25 M H3PO4, 4.5 M H2SO4 and 1.5 mM NH4Fe(SO4)2.12H2O was added to each well. Samples were incubated for 20 min at 95 °C before measuring absorbance at 540 nm on a CLARIOstar Plus (BMG LABTECH). Data analysis was performed with GraphPad Prism. Data are presented as the average ± standard error of the mean from at least two independent replicates.

Molecule | Absorbance at 540 nm
PADI3 (protein, UniProt Q9ULW8 1-664, looked up) Protein-arginine deiminase …: MSLQRIVRVSLEHPTSAVCVAGVETLVDIYGSVPEGTEMFEVYGTPGVDIYISPNMERGRERADTRRWRFDATLEIIVVMNSPSNDLNDSHVQISYHSSHEPLPLAYAVLYLTCVDISLDCDLNCEGRQDRNFVDKRQWVWGPSGYGGILLVNCDRDDPSCDVQDNCDQHVHCLQDLEDMSVMVLRTQGPAALFDDHKLVLHTSSYDAKRAQVFHICGPEDVCEAYRHVLGQDKVSYEVPRLHGDEERFFVEGLSFPDAGFTGLISFHVTLLDDSNEDFSASPIFTDTVVFRVAPWIMTPSTLPPLEVYVCRVRNNTCFVDAVAELARKAGCKLTICPQAENRNDRWIQDEMELGYVQAPHKTLPVVFDSPRNGELQDFPYKRILGPDFGYVTREPRDRSVSGLDSFGNLEVSPPVVANGKEYPLGRILIGGNLPGSSGRRVTQVVRDFLHAQKVQPPVELFVDWLAVGHVDEFLSFVPAPDGKGFRMLLASPGACFKLFQEKQKCGHGRALLFQGVVDDEQVKTISINQVLSNKDLINYNKFVQSCIDWNREVLKRELGLAECDIIDIPQLFKTERKKATAFFPDLVNMLVLGKHLGIPKPFGPIINGCCCLEEKVRSLLEPLGLHCTFIDDFTPYHMLHGEVHCGTNVCRKPFSFKWWNMVP | 1.346 and 1.369 and 1.38 and 1.26 and 1.243 and 1.268
PADI1 (protein, UniProt Q9ULC6 1-663, looked up) Protein-arginine deiminase …: MAPKRVVQLSLKMPTHAVCVVGVEAHVDIHSDVPKGANSFRVSGSSGVEVFMVYNRTRVKEPIGKARWPLDTDADMVVSVGTASKELKDFKVRVSYFGEQEDQALGRSVLYLTGVDISLEVDTGRTGKVKRSQGDKKTWRWGPEGYGAILLVNCDRDNHRSAEPDLTHSWLMSLADLQDMSPMLLSCNGPDKLFDSHKLVLNVPFSDSKRVRVFCARGGNSLSDYKQVLGPQCLSYEVERQPGEQEIKFYVEGLTFPDADFLGLVSLSVSLVDPGTLPEVTLFTDTVGFRMAPWIMTPNTQPPEELYVCRVMDTHGSNEKFLEDMSYLTLKANCKLTICPQVENRNDRWIQDEMEFGYIEAPHKSFPVVFDSPRNRGLKDFPYKRILGPDFGYVTREIPLPGPSSLDSFGNLDVSPPVTVGGTEYPLGRILIGSSFPKSGGRQMARAVRNFLKAQQVQAPVELYSDWLSVGHVDEFLTFVPTSDQKGFRLLLASPSACLKLFQEKKEEGYGEAAQFDGLKHQAKRSINEMLADRHLQRDNLHAQKCIDWNRNVLKRELGLAESDIVDIPQLFFLKNFYAEAFFPDMVNMVVLGKYLGIPKPYGPIINGRCCLEEKVQSLLEPLGLHCIFIDDYLSYHELQGEIHCGTNVRRKPFPFKWWNMVP | 1.397 and 1.419 and 1.464 and 1.243 and 1.309 and 1.332
